From the Human Domainome abundance scans (Beltran et al. 2025)
± gives the uncertainty stated by the source.

B1: E3 ubiquitin-protein ligase TRIM36, residues 208 to 252; numbered along this chain, Q9NQ86 (parent)
chain: KILMCPEHETERINMYCELCRRPVCHLCKLGGNHANHRVTTMSSA

Variants of: B1
Experiment: abundance fitness (aPCA) (normalised: wild type 0, dead -1); higher = more abundant; growth selection in yeast, the domain comes from the species named
Conditions: Homo sapiens
KILMCPEHETERINMYCELCRRPVCHLCKLGGNHANHRATTMSSA [V39A] gave an abundance fitness of 0.079 ± 0.048. KILMCPEHETERINMYCELCRRPVCHLCKLGGNHANHRITTMSSA [V39I] showed an abundance fitness of -0.149 ± 0.24. KILMCPEHETERINMYCELCRRPVCHLCKLGGNHANHRHTTMSSA [V39H] showed an abundance fitness of -0.023 ± 0.088. Variant KILMCPEHETERINMYCELCRRPVCHLCKLGGNHANHRWTTMSSA [V39W] has an abundance fitness of -0.138 ± 0.052. Variant KILMCPEHETERINMYCELCRRPVCHLCKLGGNHANHRGTTMSSA [V39G] has an abundance fitness of 0.079 ± 0.05. KILMCPEHETERINMYCELCRRPVCHLCKLGGNHANHRQTTMSSA [V39Q] showed an abundance fitness of 0.008 ± 0.059. KILMCPEHETERINMYCELCRRPVCHLCKLGGNHANHRETTMSSA [V39E] gave an abundance fitness of 0.037 ± 0.053. With KILMCPEHETERINMYCELCRRPVCHLCKLGGNHANHRYTTMSSA [V39Y] the abundance fitness was -0.184 ± 0.1. With KILMCPEHETERINMYCELCRRPVCHLCKLGGNHANHRFTTMSSA [V39F] the abundance fitness was -0.103 ± 0.099. With KILMCPEHETERINMYCELCRRPVCHLCKLGGNHANHRDTTMSSA [V39D] the abundance fitness was 0.079 ± 0.08. KILMCPEHETERINMYCELCRRPVCHLCKLGGNHANHRPTTMSSA [V39P] showed an abundance fitness of -0.005 ± 0.053. KILMCPEHETERINMYCELCRRPVCHLCKLGGNHANHRTTTMSSA [V39T] gave an abundance fitness of 0.054 ± 0.069. In the case of KILMCPEHETERINMYCELCRRPVCHLCKLGGNHANHRLTTMSSA [V39L], the abundance fitness is reported as -0.007 ± 0.053. KILMCPEHETERINMYCELCRRPVCHLCKLGGNHANHRSTTMSSA [V39S] gave an abundance fitness of 0.008 ± 0.055. Work on KILMCPEHETERINMYCELCRRPVCHLCKLGGNHANHRRTTMSSA [V39R] yielded an abundance fitness of -0.064 ± 0.048. Work on KILMCPEHETERINMYCELCRRPVCHLCKLGGNHANHRNTTMSSA [V39N] yielded an abundance fitness of 0.057 ± 0.097. KILMCPEHETERINMYCELCRRPVCHLCKLGGNHANHRMTTMSSA [V39M] gave an abundance fitness of 0.028 ± 0.072. In the case of KILMCPEHETERINMYCELCRRPVCHLCKLGGNHANHRCTTMSSA [V39C], the abundance fitness is reported as -0.079 ± 0.071. With KILMCPEHETERINMYCELCRRPVCHLCKLGGNHANNRVTTMSSA [H37N] the abundance fitness was -0.231 ± 0.078. Work on KILMCPEHETERINMYCELCRRPVCHLCKLGGNHANWRVTTMSSA [H37W] yielded an abundance fitness of -0.44 ± 0.054. KILMCPEHETERINMYCELCRRPVCHLCKLGGNHANQRVTTMSSA [H37Q] showed an abundance fitness of -0.119 ± 0.065. Variant KILMCPEHETERINMYCELCRRPVCHLCKLGGNHANCRVTTMSSA [H37C] has an abundance fitness of -0.007 ± 0.061. Work on KILMCPEHETERINMYCELCRRPVCHLCKLGGNHANLRVTTMSSA [H37L] yielded an abundance fitness of -0.26 ± 0.051. For KILMCPEHETERINMYCELCRRPVCHLCKLGGNHANARVTTMSSA [H37A], the abundance fitness was -0.027 ± 0.051. In the case of KILMCPEHETERINMYCELCRRPVCHLCKLGGNHANSRVTTMSSA [H37S], the abundance fitness is reported as -0.198 ± 0.063. KILMCPEHETERINMYCELCRRPVCHLCKLGGNHANIRVTTMSSA [H37I] showed an abundance fitness of -0.529 ± 0.16. With KILMCPEHETERINMYCELCRRPVCHLCKLGGNHANTRVTTMSSA [H37T] the abundance fitness was -0.208 ± 0.064. Work on KILMCPEHETERINMYCELCRRPVCHLCKLGGNHANDRVTTMSSA [H37D] yielded an abundance fitness of -0.217 ± 0.063. KILMCPEHETERINMYCELCRRPVCHLCKLGGNHANYRVTTMSSA [H37Y] gave an abundance fitness of -0.36 ± 0.12. KILMCPEHETERINMYCELCRRPVCHLCKLGGNHANRRVTTMSSA [H37R] showed an abundance fitness of -0.242 ± 0.045. In the case of KILMCPEHETERINMYCELCRRPVCHLCKLGGNHANGRVTTMSSA [H37G], the abundance fitness is reported as -0.127 ± 0.046. In the case of KILMCPEHETERINMYCELCRRPVCHLCKLGGNHANMRVTTMSSA [H37M], the abundance fitness is reported as -0.298 ± 0.069. KILMCPEHETERINMYCELCRRPVCHLCKLGGNHANPRVTTMSSA [H37P] showed an abundance fitness of -0.194 ± 0.058. KILMCPEHETERINMYCELCRRPVCHLCKLGGNHANERVTTMSSA [H37E] gave an abundance fitness of -0.038 ± 0.054. In the case of KILMCPEHETERINMYCELCRRPVCHLCKLGGNHANKRVTTMSSA [H37K], the abundance fitness is reported as -0.176 ± 0.068. With KILMCPEHETERINMYCELCRRPVCHLCKLGGNHANFRVTTMSSA [H37F] the abundance fitness was -0.486 ± 0.092. In the case of KILMCPEHETERINMYCELCRRPVCHLCKLGGNHHNHRVTTMSSA [A35H], the abundance fitness is reported as -0.149 ± 0.098. KILMCPEHETERINMYCELCRRPVCHLCKLGGNHTNHRVTTMSSA [A35T] gave an abundance fitness of -0.068 ± 0.056. KILMCPEHETERINMYCELCRRPVCHLCKLGGNHINHRVTTMSSA [A35I] showed an abundance fitness of 0.255 ± 0.49. KILMCPEHETERINMYCELCRRPVCHLCKLGGNHWNHRVTTMSSA [A35W] gave an abundance fitness of -0.309 ± 0.053. In the case of KILMCPEHETERINMYCELCRRPVCHLCKLGGNHVNHRVTTMSSA [A35V], the abundance fitness is reported as -0.011 ± 0.05. KILMCPEHETERINMYCELCRRPVCHLCKLGGNHDNHRVTTMSSA [A35D] showed an abundance fitness of 0.085 ± 0.098. Variant KILMCPEHETERINMYCELCRRPVCHLCKLGGNHQNHRVTTMSSA [A35Q] has an abundance fitness of -0.05 ± 0.07. Variant KILMCPEHETERINMYCELCRRPVCHLCKLGGNHYNHRVTTMSSA [A35Y] has an abundance fitness of -0.137 ± 0.09. Variant KILMCPEHETERINMYCELCRRPVCHLCKLGGNHPNHRVTTMSSA [A35P] has an abundance fitness of -0.182 ± 0.074. With KILMCPEHETERINMYCELCRRPVCHLCKLGGNHENHRVTTMSSA [A35E] the abundance fitness was 0.009 ± 0.075. KILMCPEHETERINMYCELCRRPVCHLCKLGGNHRNHRVTTMSSA [A35R] gave an abundance fitness of -0.129 ± 0.048. For KILMCPEHETERINMYCELCRRPVCHLCKLGGNHKNHRVTTMSSA [A35K], the abundance fitness was -0.078 ± 0.072. Work on KILMCPEHETERINMYCELCRRPVCHLCKLGGNHLNHRVTTMSSA [A35L] yielded an abundance fitness of -0.091 ± 0.056. With KILMCPEHETERINMYCELCRRPVCHLCKLGGNHSNHRVTTMSSA [A35S] the abundance fitness was -0.052 ± 0.054. KILMCPEHETERINMYCELCRRPVCHLCKLGGNHNNHRVTTMSSA [A35N] showed an abundance fitness of -0.339 ± 0.12. For KILMCPEHETERINMYCELCRRPVCHLCKLGGNHACHRVTTMSSA [N36C], the abundance fitness was -0.017 ± 0.067. Work on KILMCPEHETERINMYCELCRRPVCHLCKLGGNHAFHRVTTMSSA [N36F] yielded an abundance fitness of -0.017 ± 0.15. With KILMCPEHETERINMYCELCRRPVCHLCKLGGNHAQHRVTTMSSA [N36Q] the abundance fitness was 0.021 ± 0.063. KILMCPEHETERINMYCELCRRPVCHLCKLGGNHAWHRVTTMSSA [N36W] gave an abundance fitness of -0.299 ± 0.051. KILMCPEHETERINMYCELCRRPVCHLCKLGGNHAIHRVTTMSSA [N36I] showed an abundance fitness of -0.225 ± 0.066. In the case of KILMCPEHETERINMYCELCRRPVCHLCKLGGNHAMHRVTTMSSA [N36M], the abundance fitness is reported as -0.109 ± 0.068.
